Results as given in US20250034594A1, “RNA-GUIDED GENOME RECOMBINEERING AT KILOBASE SCALE” (THE BOARD OF TRUSTEES OF THE LELAND STANFORD JUNIOR …, priority 2021, published 2025).

B1: SSAP_80: SEQ ID NO: 249 (protein)
chain: GHLVSKTEQDYIKQHYAKGATDQEFEHFIGVCRARGLNPAANQIYFVKYRSKDGPAKPAFILSIDSLRLIAHRTGDYAGCSEPIFTDGGKACTVTVRRNLKSGETGNFSGMAFYDEQVQQKNGRPTSFWQSKPRTMLEKCAEAKALRKAFPQDLGQFYIREEMPPQYDEPIQVHKPKALEEPRFSKSDLSRRKGLNRKLSALGVDPSRFDEVATFLDGTPDRELGQKLKLWLKEAGYGVNQ
B2: SSAP_161: SEQ ID NO: 330; Solobacterium moorei (protein, listed as Solobacterium moorei)
chain: TEIKAAKAPATVAKAGVSTQNKTIKDYITIMKPEIEKALPSTITPERFTRITLSAVSNNPKLQACSPSTFLSAMMQSAQLGLEPNTPLGQAYLIPYGNSCQFQLGYKGLLQLAYNSGQIKTIRTETVYENDEFKYELGLHSDLVHVPAMSNRGNPTAYYAVIEYTNGGYGFEVMSHDDVLEHAKKFSKTFNNGPWQSDFESMAKKTVLKQALKYAPLSTELVSKINTDETVKSSISDHMEEVKNDIDLSQIIDAETGEIHE
B3: SSAP_7: SEQ ID NO: 176 (protein)
chain: STNDELKNKLANKQNGGQVASAQSLGLKGLLEAPTMRKKFESVLDKKAPQFLTSLLNLYNGDDYLQKTDPMTVVTSAMVAATLDLPIDKNLGYAWIVPYKGRAQFQLGYKGYIQLALRTGQYKSINVIEVRDGELLKWNRLTEEIELDLDNNTSEKVIGYCGYFQLINGFEKTVYWTRKEIEAHKKKFSKSDFGWKKDYDAMAKKTVLRNMLSKWGILSIDMQTAVTEDEAEPRERKDVTEDESIPDIIDAPITPSDTLEAGSEVQGSMI
B4: SSAP_144: SEQ ID NO: 313; Romboutsia weinsteinii (protein, listed as Romboutsia weinsteinii)
chain: TNLKNTLKNKEAKGNNLAINPSYAMKQLMIKMKGEITSALPKELCSERFQRVALTAFNSNPKLQNCAPMTFIAAMMQSDQLGLEPNTPLGQAYLIPYKVKGIDKVQFQIGYKGLLELAHRSGRLKTLYAHEVRENDEFDIDYGLEQRLIHKPLLKGNRGEVIGYYAVYHLEHNGYSFVFMTYDEVLEHGKKYSKSFEGGIWEKEFDSMAKKTVIKKLLKYAPLSIEIQKAINFDESVKGSIDSDMLLVDKADESIDVEGNVLNQRGIKYGCI
B5: SSAP_131: SEQ ID NO: 300; Thermoclostridium stercorarium (protein, listed as Thermoclostridium stercorarium)
chain: TTVNQTELKNKLAEKAKTPAKTGNTVFDLIRKMEPEIKRALPKQISPERFARIAMTAVRNTPKLQACEPISFIAALMQSAQLGLEPNTPLGQAYLIPYGKEVQFQLGYQGMLTLAYRTGEYQSIYAMPVYANDEFEYEYGLNEKLVHKPAPDPEGEPIYYYAVYKLKNGGHGFVVMSRQQIERHRDKYSPSAKQGKFSPWNTDFDSMAKKTVLKQLLKYAPKSVEFATQIAQDETIKTEIAEDMTEVQGIEVEYEATDDQENQENQEQED
B6: SSAP_311: SEQ ID NO: 480; Paenibacillus graminis (protein, listed as Paenibacillus graminis)
chain: TVAIETQVQETLDRILDSKHDALPSDFKKKRFSENCKVYVAEEKDLHKYTIDDIVANLFKGAVLGLDFLAKECHLITGGVDLKFQTDYKGEMKLTKKYSVRPMLDVYAKNVREGDIFREQIIEGRPAIHFDPLPFNASKIIGSFAIALFQDGGMVYESIPAGEIEEIRKNYGKSLGDAWEKSQGEMYKRTVLRRLCKTIETDFDAEQRLIYEMGGAFEFTKQPTRSRQQSPFNPPEESEVIQNDRAAETDQG
B7: SSAP_94: SEQ ID NO: 263; Providencia alcalifaciens (protein, listed as Providencia alcalifaciens)
chain: STPPLAKSDLQKTQGTEVKIKTNEQKLVEFINQPGMKAQLAAALPKHITSDRMIRIVSTEIRKTPSLANCDIQSFIGAVVQCSQLGLEPGNALGHAYLLPFGNGKSDNGQQNVQLIIGYRGMIDLARRSGQIISISARTVRQGDNFHFEYGLNENLTHIPEGNEDSPITHVYAVARLKDGGVQFEVMTYNQIEKVRNLSKAGKNGPWVTHWEEMAKKTVIRRLFKYLPVSIEMQKAVILDEKAEANIEQEHSAIFEAEFEEVDSNGN
B8: SSAP_260: SEQ ID NO: 429; Clostridium cochlearium (protein, listed as Clostridium cochlearium)
chain: ATNESLKNQLATKKETGIGSAGNTIKSLINSPVIKKRFEEVLDKRAPQYMSSIVNLVNSDTNLKKCDQMSVIASCMVAATMDLPVDKNLGYAWIVPYGNKAQFQMGYKGYVQLALRTGQYKSINVIEVHEGELEEWNPLTEELKIDFSKKESDAVIGYAGYFELLNGFKKSTYWTKEQITKHKNKFSKSDFGWKKDFDAMAKKTVLRNMLSKWGILSIEMQNAYTADHGVIKNEIMETGEVKENVEYIEADFESYEGTSIEEGGSNE
B9: SSAP_63: SEQ ID NO: 232 (protein)
chain: SELQQAAQGQADAGPVQVIYSHAKEIQNVLAKGTDMDRWLQMARLAVMRDPNLVNAAKRDPGSLMQAMLDCAEKGHIPGTEDYYLVPRKGGIQGMESWKGIAKRIMRSGRYQSIVAEVVYEGEDFDFNPNTMDRPVHQIKYMARTSGQPVLSYAYAVDHEGKPSTIAVADPRYIAKVKANSKGTVWADWDEAMYKKTAVKMLVDYVDTSSTDRRGVSTVQVDGPVGTFIDGVLEIEGGDQ
B10: SSAP_261: SEQ ID NO: 430; Peptoniphilus grossensis (protein, listed as Peptoniphilus grossensis)
chain: TNIQKQENRALSPVNQMKNLLKNQGMQNLFADALKENKDRFLASIIDLYNGDTSLQDCNPKEVVMEALKAATLNLPINKNLGYAYIVPYNSKGTTRPQFQIGYKGYIQMAQRSGQYKALNAGILYEGMEVKRDFLRGTFEIIGEPKSDKVMGYFAYFQLLNGYEKAIYMTKDEVTEHAERYSQSYGSKYSPWKKQFDEMGQKTVIKKLLSKYGVLTTEFQDAVKEEEDREVLRATENNAMLEMTNPDEEEETIEVNPETGEIIEDDVKAPF
B11: SSAP_297: SEQ ID NO: 466; Dysgonomonas capnocytophagoides (protein)
chain: STQQVQQQTKPLSLANFLNAPSTANFLKETLAEKKSEFVSNLIALCDADPKLAQCDPAQLMKCAMNATSLNLPLNKNLGYAYVIAYKGVPSFQIGYKGLIQLAIRTGQYKFINATEIREGEIRHNKITGEVIFNGEKPDAPIVGYMSYLELVNGFTASLYMTEEQIEQHALRFSQTYKNDKQYRSSTSKWSDPLARPTMCKKTVLKLLLGTYGLMTTEFAKALDSDSDDEVSTSGHRFEEAEIVQQGEPNEEQSDEPKRMEI
modifications: Dysgonomonas capnocytophagoides
B12: SSAP_255: SEQ ID NO: 424; Bacteroides eggerthii (protein, listed as Bacteroides eggerthii)
chain: GTVTTVPQLKSMLANENVKSRFKEILGKKAPGFISSIVAVANSNTLLQKAEPQSIMNAAVIAATLDLPINPNLGFAYIIPYGNQASFQIGYKGMTQLAMRSGQYKTINVTEVYEGEIKSENRFTGEYTFGERKSDKIVGYMAYFSLTNGFEKYMYMSREECEKHGKKFSQTYKRGGGLWATDFDSMSKKTVLKMLISKYGILSIDMQRAQTFDQAVVKDDLVEKNIDEAEVSYEDNPTNADVRRNAMKEALEEAEVVDETTGEIFNQPAQ
B13: SSAP_79: SEQ ID NO: 248 (protein)
chain: EALLLRRWQMGNLTKTTGFALAPQNLEQAMQLATMICNSQLAPNNYKGKPEDTLVAMMMGHELGLNPLQSIQNIAVINGRPSIYGDALLALVQNSPAFGGIQESFDEDTMTATCTVWRKGGEKHTQHYSKDDADTAGLWGKQGPWKQHPKRMLAMRARGFAVRNQFADALAGLVTREEAEDMEKEINPTPAPQAQSKRIGQKQSRTQYSESDFNENFPKWKAAVESGKKTSEQIISMVSTKGDLTQGMIEAIESIEAGEPA

Tested on: gene editing with Cas9
Test: Screen of 322 new SSAP proteins, gene editing activity with Cas9 (Table 5)
Assay type: cell-based
Parameters: Cas9 with SSAP activity: scale not given here
Settings: not given
How it was run: (§1)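 First, 322 new single-strand annealing proteins are identified from sequences. Next they are synthesized. Finally each is assayed for editing in combination with Cas9 and, separately, dCas9.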

Row | Molecule | Cas9 with SSAP activity
1 | B1 | −3.757
2 | B2 | −1.623
3 | B3 | −7.628
4 | B4 | −2.249
5 | B5 | −1.273
6 | B6 | −6.123
7 | B7 | −0.340
8 | B8 | −3.745
9 | B9 | 0.570
10 | B10 | −0.535
11 | B11 | −5.364
12 | B12 | −0.273
13 | B13 | −1.629

Same assay, conditions: normalized

Row | Molecule | Cas9 with SSAP activity (normalized)
14 | B1 | −0.629
15 | B2 | −0.850
16 | B3 | −1.701
17 | B4 | −0.663
18 | B5 | −0.894
19 | B6 | −0.874
20 | B7 | −0.087
21 | B8 | −0.581
22 | B9 | 2.381
23 | B10 | −0.174
24 | B11 | −1.014
25 | B12 | −0.044
26 | B13 | −2.086

Tested on: gene editing with Cas9 and dCas9
Test: Screen of 322 new SSAP proteins, activity across all experiments (Cas9 and dCas9, Table 5)
Assay type: cell-based
Parameters: scale not given here
Settings: not given
How it was run: as §1

Row | Molecule | Activity across all experiments
27 | B1 | −5.479
28 | B2 | −0.857
29 | B3 | −7.537
30 | B4 | −4.771
31 | B5 | −4.137
32 | B6 | −6.749
33 | B7 | −3.670
34 | B8 | −5.739
35 | B9 | −3.427
36 | B10 | −4.137
37 | B11 | −6.274
38 | B12 | −3.873
39 | B13 | −4.489

Tested on: gene editing with dCas9
Test: Screen of 322 new SSAP proteins, gene editing activity with dCas9 (Table 5)
Assay type: cell-based
Parameters: dCas9 with SSAP activity: scale not given here
Settings: not given
How it was run: as §1

Row | Molecule | dCas9 with SSAP activity
40 | B1 | −7.200
41 | B2 | −0.092
42 | B3 | −7.447
43 | B4 | −7.293
44 | B5 | −7.001
45 | B6 | −7.375
46 | B7 | −7.000
47 | B8 | −7.734
48 | B9 | −7.424
49 | B10 | −7.740
50 | B11 | −7.184
51 | B12 | −7.473
52 | B13 | −7.349

Same assay, conditions: normalized

Row | Molecule | dCas9 with SSAP activity (normalized)
53 | B1 | −1.353
54 | B2 | −0.051
55 | B3 | −1.443
56 | B4 | −1.765
57 | B5 | −0.946
58 | B6 | −1.526
59 | B7 | −1.112
60 | B8 | −1.301
61 | B9 | −1.335
62 | B10 | −1.199
63 | B11 | −1.057
64 | B13 | −2.203
